{"source": "paper PMC11832919", "about": "(Nature Communications, 2025)", "binders": {"B1": {"name": "human methemoglobin (coordinating oxidized heme) (complex)", "chain 1": "not shown", "chain 2": "not shown"}}, "molecular_target": "StrepTag II-IsdB (Staphylococcus aureus iron-regulated surface determinant protein B) (S. aureus, UniProt Q2FZF0 41-613)", "sequence (Q2FZF0 41-613)": "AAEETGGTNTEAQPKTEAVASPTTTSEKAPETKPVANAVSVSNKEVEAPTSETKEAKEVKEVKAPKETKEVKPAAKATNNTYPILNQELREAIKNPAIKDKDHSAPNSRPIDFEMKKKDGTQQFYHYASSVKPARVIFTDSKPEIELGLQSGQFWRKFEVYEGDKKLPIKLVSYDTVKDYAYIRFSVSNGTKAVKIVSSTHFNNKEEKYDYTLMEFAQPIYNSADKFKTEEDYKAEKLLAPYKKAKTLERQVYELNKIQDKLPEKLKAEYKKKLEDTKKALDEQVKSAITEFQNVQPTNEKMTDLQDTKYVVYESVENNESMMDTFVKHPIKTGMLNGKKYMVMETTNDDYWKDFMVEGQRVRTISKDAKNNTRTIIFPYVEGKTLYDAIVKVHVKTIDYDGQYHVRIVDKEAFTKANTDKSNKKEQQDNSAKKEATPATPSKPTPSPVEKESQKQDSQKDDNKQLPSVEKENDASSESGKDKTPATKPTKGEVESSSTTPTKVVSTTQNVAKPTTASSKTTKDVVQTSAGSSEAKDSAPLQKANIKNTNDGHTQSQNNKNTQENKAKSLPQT", "test": "SAXS"}
{"binder": "B1", "values": [{"measurement": "Kd", "result": "1680 ± 620", "unit": "nM"}]}
